Article PMC5010584, “Comparison of Ga-68-Labeled Fusarinine C-Based Multivalent RGD Conjugates and [^68Ga]NODAGA-RGD—In Vivo Imaging Studies in Human Xenograft Tumors” (Molecular Imaging and Biology, 2016)
Read-outs that look alike come from different tables or passages of the source.

Tests used:
integrin αvβ3 = molecular target: T1, integrin αvβ3 (Homo sapiens, UniProt P05106+P06756); experiment: Binding affinity for immobilized integrin αvβ3, displacement of [^125I]c(RGDyV); conditions: isolated integrin αvβ3, radioligand [^125I]c(RGDyV), three independent measurements
T1 construct: purchased Millipore-Chemicon, Temecula, CA, USA
Protocol: In vitro binding affinities of cyclo(-Arg-Gly-Asp-DTyr-Val-) (c(RGDyV)) and the three FSC-RGD conjugates were determined by using isolated integrin αvβ3 (Millipore-Chemicon, Temecula, CA, USA) and I-125-labeled c(RGDyV) as radioligand. ([^125I]c(RGDyV) was produced as described in [18]). To integrin αvβ3, coated overnight at 4 °C onto 96-well plates (Nunc, Thermo Fisher Scientific, Vienna, Austria), [^125I]c(RGDyV) and the corresponding peptides in increasing concentrations from 0.001 to 100 nM were added. Plates were washed, and integrin bound activity was recovered with 2-M NaOH solution and counted in a gamma counter. OriginPro 8.5 software (Northampton, MA, USA) was used to calculate half maximal inhibitory concentration (IC50) values in three independent measurements.

[1] = Distribution coefficient (logD), octanol/PBS; assay type: physicochemical
Protocol: A volume of 500 μl PBS including 0.5 MBq radioligand (approximately 0.5 μg peptide) was combined with 500 μl octanol; the mixture was vortexed for 15 min and centrifuged for 2 min at 2000 rcf. From each phase, an aliquot (50 μl) was pipetted out and measured in a 2480 Wizard2 Automatic Gamma Counter (PerkinElmer, Vienna, Austria). Each measurement was repeated five times. LogD value was calculated as the average log ratio of the radioactivity in the organic fraction and the PBS fraction.

[2] = test system: M21 cells (integrin αvβ3 positive); experiment: Internalization assay in M21 cells; assay type: cell-based, human; conditions: 90-min incubation, 37 °C
Protocol: One-milliliter aliquots in Eppendorf tubes were incubated at 37 °C for 1 h in triplicates, and [^68Ga]FSC(succ-RGD)3, [^68Ga]FSC(RGDfE)3, or [^68Ga]FSC(Mal-RGD)3 (approximately 1.5 × 10^6 cpm, 1.2 μg peptides) in PBS with 0.5 % BSA (150 μl, total series) or with 10 μM c(RGDyV) in PBS/0.5 % BSA (150 μl, nonspecific series) at 37 °C was added. After 90-min incubation was stopped by centrifugation, the medium was removed followed by washing (twice) with ice-cold Tris-buffered saline. After incubation in acid wash buffer (20 mM acetate buffer, pH 4.5) at 37 °C for 5 min (two times) and centrifugation, membrane bound activity was collected in plastic vials. Internalized radioligand fraction was collected after lysing cells by addition of 2 M NaOH. The internalized activity was expressed as percentage of total activity per milligram protein after spectrophotometric determination of protein (Bradford assay) in the NaOH fraction.

[3] = Ex vivo biodistribution in mice bearing M21/M21-L xenografts; conditions: mouse, in vivo, iv
Protocol: (§1) For the induction of tumor xenografts, female, athymic BALB/c nude mice (Charles River Laboratories) were injected subcutaneously with either 5 × 10^6 integrin αvβ3-positive M21 cells into the right hind limb and with 5 × 10^6 integrin αvβ3-negative M21-L cells (negative control) into the left hind limb of the same mouse. […] On the day of the experiment, [^68Ga]FSC(succ-RGD)3, [^68Ga]FSC(RGDfE)3, or [^68Ga]FSC(Mal-RGD)3 (∼0.5 MBq/mouse, ∼0.5 μg peptide, respectively) was intravenously injected in the lateral tail vein. Mice were euthanized by cervical dislocation at 1 and 2 h (only for [^68Ga]FSC(succ-RGD)3) after injection. Organs (spleen, pancreas, stomach, intestine, kidney, liver, heart, and lung), blood, muscle tissue, and tumors were dissected and weighed. Activity of the different samples was measured in the gamma counter. Results were expressed as percentage of injected dose per gram tissue (% ID/g).

[4] = test system: integrin αvβ3-positive (M21) and integrin αvβ3-negative (M21-L) human melanoma tumors; experiment: as above
Protocol: as §1

[5] = test system: integrin αvβ3-positive (M21) and integrin αvβ3-negative (M21-L) human melanoma tumors; conditions: 1 h, cited from earlier work
[6] = test system: integrin αvβ3-positive M21 tumor; conditions: mouse, in vivo, iv
Protocol: To compare the imaging properties of [^68Ga]FSC(succ-RGD)3, [^68Ga]FSC(RGDfE)3, and [^68Ga]FSC(Mal-RGD)3, microPET/CT imaging experiments were conducted on an Inveon microPET/CT scanner (Siemens Preclinical Solutions, Knoxville, USA). BALB/c nude mice bearing M21-positive tumor xenografts were administered with [^68Ga]FSC(succ-RGD)3 (or [^68Ga]FSC(RGDfE)3, [^68Ga]FSC(Mal-RGD)3, ∼5 MBq/mouse, ∼5 μg peptide) via intravenous (i.v.) injection. The body temperature of mice was maintained at 37 °C on the scanner bed and in the incubation chambers using heating pads. Dynamic 10-min duration PET scans were performed for 50 min while static PET scans (10 min) were performed at 1-h post-injection (p.i.), followed by a 25-min CT scan (spatial resolution, 113 μm; 80 kV, 500 mA). The mice remained under general anesthesia (isoflurane/O2) during the time between injection and imaging. […] Spherical isocontours were set at 50 % of the maximal pixel value to measure uptake values (Bq/ml) in kidneys, heart, and tumor.

[7] = MicroPET/CT imaging in U87MG tumor-bearing mice; conditions: mouse, uptake value in tumor (ROI analysis), U87MG xenograft, PET, 90 min p.i., retro-orbital
Protocol: To investigate the capabilities of binding to the integrin αvβ3 receptors in the different tumor xenograft models and, at the same time, compare the imaging properties of [^68Ga]FSC(succ-RGD)3 and [^68Ga]NODAGA-RGD, two U87MG tumor-bearing mice were administered retro-orbitally (r.o.) under general anesthesia with [^68Ga]FSC(succ-RGD)3 and [^68Ga]NODAGA-RGD each other (∼6 MBq/mouse, ∼5 μg peptide) at continued days. For the induction of tumor xenografts, female, athymic BALB/c nude mice (AnLab, Prague, Czech Republic) were injected subcutaneously with 5 × 10^6 U87MG cells into the right flank. The tumors were allowed to grow until they had reached a volume of 0.5 to 0.8 cm^3. Imaging experiments were conducted on an Albira microPET/SPECT/CT imaging system (Bruker Biospin Corporation, Woodbridge, CT, USA). MicroPET/CT images were acquired under general anesthesia (isoflurane/O2) and heating at 37 °C. PET data for each mouse was recorded via either dynamic imaging for 90 min (5-min PET scan per frame) or static scans (a 5-min PET scan (axial FOV 148 mm) was performed, followed by a 25-min CT scan (axial FOV 65 mm, 45 kVp, 400 μA, at 600 projections)) at 90 min p.i. […] The uptake values (%ID/g) in kidneys, heart, and tumor were analyzed by drawing standardized volumes of interest.

[8] = M21 model, 1 h p.i., not statistically significant

T1 sequence (P06756 31-889 limits assumed): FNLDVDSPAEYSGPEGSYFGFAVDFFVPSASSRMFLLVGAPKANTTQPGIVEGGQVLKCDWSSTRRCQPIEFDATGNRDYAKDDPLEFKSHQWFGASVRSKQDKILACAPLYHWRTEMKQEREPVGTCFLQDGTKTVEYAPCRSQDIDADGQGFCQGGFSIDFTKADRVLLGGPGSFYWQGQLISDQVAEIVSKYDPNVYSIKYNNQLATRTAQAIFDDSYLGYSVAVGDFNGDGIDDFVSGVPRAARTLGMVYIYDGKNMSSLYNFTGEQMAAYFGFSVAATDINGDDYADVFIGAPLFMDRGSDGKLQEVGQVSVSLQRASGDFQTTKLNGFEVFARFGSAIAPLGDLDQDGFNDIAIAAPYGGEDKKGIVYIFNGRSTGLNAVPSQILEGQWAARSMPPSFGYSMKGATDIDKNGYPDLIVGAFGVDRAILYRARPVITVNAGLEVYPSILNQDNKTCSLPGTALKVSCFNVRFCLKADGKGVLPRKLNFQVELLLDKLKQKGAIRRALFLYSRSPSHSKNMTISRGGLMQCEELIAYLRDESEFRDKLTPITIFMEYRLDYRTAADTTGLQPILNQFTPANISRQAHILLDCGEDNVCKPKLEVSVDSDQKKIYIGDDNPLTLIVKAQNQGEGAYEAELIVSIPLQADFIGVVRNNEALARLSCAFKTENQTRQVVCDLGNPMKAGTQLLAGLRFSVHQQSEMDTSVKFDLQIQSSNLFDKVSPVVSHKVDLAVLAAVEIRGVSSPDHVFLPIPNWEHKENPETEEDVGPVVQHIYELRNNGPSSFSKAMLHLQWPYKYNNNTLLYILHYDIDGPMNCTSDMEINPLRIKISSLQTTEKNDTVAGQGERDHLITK
T1 sequence (P06756 891-1048 limits assumed): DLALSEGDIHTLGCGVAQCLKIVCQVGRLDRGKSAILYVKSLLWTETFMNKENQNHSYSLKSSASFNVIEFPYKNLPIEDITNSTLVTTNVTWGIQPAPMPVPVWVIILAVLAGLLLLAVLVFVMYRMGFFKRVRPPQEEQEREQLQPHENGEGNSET
T1 sequence (P05106 27-788): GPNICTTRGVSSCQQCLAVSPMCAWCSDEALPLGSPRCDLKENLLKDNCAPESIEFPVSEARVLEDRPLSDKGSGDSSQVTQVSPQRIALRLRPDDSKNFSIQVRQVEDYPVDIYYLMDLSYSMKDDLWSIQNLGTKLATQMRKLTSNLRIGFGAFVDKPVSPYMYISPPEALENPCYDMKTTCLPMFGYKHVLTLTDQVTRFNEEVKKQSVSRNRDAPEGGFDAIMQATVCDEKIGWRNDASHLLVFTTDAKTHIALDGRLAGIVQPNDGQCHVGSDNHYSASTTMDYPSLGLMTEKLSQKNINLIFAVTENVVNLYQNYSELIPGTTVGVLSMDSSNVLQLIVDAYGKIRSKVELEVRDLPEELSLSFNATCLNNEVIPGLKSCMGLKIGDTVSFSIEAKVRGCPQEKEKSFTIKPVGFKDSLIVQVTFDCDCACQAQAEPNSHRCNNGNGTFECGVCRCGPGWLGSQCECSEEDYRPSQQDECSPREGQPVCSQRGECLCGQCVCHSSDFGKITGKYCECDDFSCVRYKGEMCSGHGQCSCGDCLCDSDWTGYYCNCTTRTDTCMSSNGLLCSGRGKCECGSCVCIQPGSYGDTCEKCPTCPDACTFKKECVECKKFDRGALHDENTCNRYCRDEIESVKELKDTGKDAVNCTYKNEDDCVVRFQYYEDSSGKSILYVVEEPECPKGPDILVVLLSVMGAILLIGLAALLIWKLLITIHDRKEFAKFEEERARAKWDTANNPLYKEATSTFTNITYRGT

Compound	logD [1]	internalized activity, % of total activity per milligram protein [2] [% cpm/mg]	tissue uptake at 1 h ([3]; Heart uptake) [%ID/g]	tissue uptake at 1 h ([3]; Intestine uptake) [%ID/g]	tissue uptake at 1 h ([3]; Kidneys uptake) [%ID/g]	tissue uptake at 1 h ([3]; Liver uptake) [%ID/g]	tissue uptake at 1 h ([3]; Lung uptake) [%ID/g]	tissue uptake at 1 h ([3]; M21-L tumor uptake) [%ID/g]	tissue uptake at 1 h ([3]; M21 tumor uptake) [%ID/g]	tissue uptake at 1 h ([3]; Muscle uptake) [%ID/g]	tissue uptake at 1 h ([3]; Pancreas uptake) [%ID/g]	tissue uptake at 1 h ([3]; Stomach uptake) [%ID/g]	M21-L tumor uptake ([4]; mouse, in vivo, iv, 1 h) [% ID/g]	other results
CC(C)[C@@H]1NC(=O)[C@@H](Cc2ccc(O)cc2)NC(=O)[C@H](CC(=O)O)NC(=O)CNC(=O)[C@H](CCCNC(=N)N)NC1=O [c(RGDyV), cyclo(-Arg-Gly-Asp-DTyr-Val-)]														IC50 (integrin αvβ3): 6.2 ± 1.6 nM
C/C1=C/C(=O)N(O)CCC[C@H](NC(=O)CC[C@@H]2NC(=O)[C@@H](Cc3ccccc3)NC(=O)[C@H](CC(=O)O)NC(=O)CNC(=O)[C@H](CCCNC(=N)N)NC2=O)C(=O)OCC/C(C)=C\C(=O)N(O)CCC[C@H](NC(=O)CC[C@@H]2NC(=O)[C@@H](Cc3ccccc3)NC(=O)[C@H](CC(=O)O)NC(=O)CNC(=O)[C@H](CCCNC(=N)N)NC2=O)C(=O)OCC/C(C)=C\C(=O)N(O)CCC[C@H](NC(=O)CC[C@@H]2NC(=O)[C@@H](Cc3ccccc3)NC(=O)[C@H](CC(=O)O)NC(=O)CNC(=O)[C@H](CCCNC(=N)N)NC2=O)C(=O)OCC1 [[^68Ga]FSC(RGDfE)3, metal not drawn]	-3.8 ± 0.2	5.3 ± 0.7	1.52 ± 0.13	3.21 ± 0.48	11.5 ± 1.87	12.1 ± 1.34	2.48 ± 1.07	1.1 ± 0.3	5.49 ± 0.94	0.94 ± 0.09	1.04 ± 0.12	4.76 ± 0.25	1.25 ± 0.06	tissue uptake at 1 h ([3]; Blood uptake): 0.4 ± 0.08 %ID/g; tissue uptake at 1 h ([3]; Spleen uptake): 9.13 ± 0.27 %ID/g
N=C(N)NCCC[C@@H]1NC(=O)[C@H](CCCCNC(=O)CCC(C(=O)O)N2CCN(CC(=O)O)CCN(CC(=O)O)CC2)NC(=O)[C@@H](Cc2ccccc2)NC(=O)[C@H](CC(=O)O)NC(=O)CNC1=O (stereo partly drawn) [[^68Ga]NODAGA-RGD, metal not drawn]														higher tumor to blood ratio versus [^68Ga]FSC(succ-RGD)3 [4, 8]: 1.8 fold; higher tumor to kidney ratio versus [^68Ga]FSC(succ-RGD)3 [4, 8]: 2 fold; M21/kidneys ratio ([5]; same murine model, calculated based on the literature data ref 14): 1.0 ± 0.4; M21 tumor uptake ([5]; mouse, in vivo): 1.3 %ID/g
C/C1=C/C(=O)N(O)CCC[C@H](NC(=O)CCC(=O)NCCCC[C@@H]2NC(=O)[C@@H](Cc3ccccc3)NC(=O)[C@H](CC(=O)O)NC(=O)CNC(=O)[C@H](CCCNC(=N)N)NC2=O)C(=O)OCC/C(C)=C\C(=O)N(O)CCC[C@H](NC(=O)CCC(=O)NCCCC[C@@H]2NC(=O)[C@@H](Cc3ccccc3)NC(=O)[C@H](CC(=O)O)NC(=O)CNC(=O)[C@H](CCCNC(=N)N)NC2=O)C(=O)OCC/C(C)=C\C(=O)N(O)CCC[C@H](NC(=O)CCC(=O)NCCCC[C@@H]2NC(=O)[C@@H](Cc3ccccc3)NC(=O)[C@H](CC(=O)O)NC(=O)CNC(=O)[C@H](CCCNC(=N)N)NC2=O)C(=O)OCC1 [[^68Ga]FSC(succ-RGD)3, metal not drawn]	-3.6 ± 0.1	5.7 ± 0.6	1.21 ± 0.28	2.41 ± 0.8	8.12 ± 1.09	3.54 ± 0.63	2.42 ± 0.22	1.25 ± 0.06	3.69 ± 0.94	0.52 ± 0.19	0.61 ± 0.13	2.02 ± 1.35	1.10 ± 0.30	earliest visualization of the receptor-positive tumor in dynamic PET [6]: 10 min p.i.; M21/kidneys ratio ([4]; 1 h p.i.): 0.5 ± 0.1; M21/kidneys ratio ([4]; 2 h p.i.): 0.6 ± 0.1; Blood uptake ([4]; mouse, in vivo, iv, 1 h): 0.63 ± 0.26 % ID/g; Spleen uptake ([4]; mouse, in vivo, iv, 1 h): 3.27 ± 0.64 % ID/g; tissue uptake at […] [7]: 3.8 %ID/g
